Results published in paper PMC5717261.

Target: Recombinant human MASP-2 (stabilized in a proenzyme form by mutation of the active site Ser 618 into Ala) (human)
Assay: SPR; BIAcore 3000, 25 °C; BMP-1, mTLL-1 or MASP-2 immobilised by amine coupling on CM5; C1q or MBL injected (60 µl, 20 µl/min) at several concentrations in 50 mM triethanolamine-HCl, 145 mM NaCl, 2 mM CaCl2, 0.005% surfactant P20, pH 7.4; global fit to a 1:1 Langmuir model; apparent KD from kd/ka

Chain of Recombinant human mannose-binding lectin (MBL) (P11226 21-248): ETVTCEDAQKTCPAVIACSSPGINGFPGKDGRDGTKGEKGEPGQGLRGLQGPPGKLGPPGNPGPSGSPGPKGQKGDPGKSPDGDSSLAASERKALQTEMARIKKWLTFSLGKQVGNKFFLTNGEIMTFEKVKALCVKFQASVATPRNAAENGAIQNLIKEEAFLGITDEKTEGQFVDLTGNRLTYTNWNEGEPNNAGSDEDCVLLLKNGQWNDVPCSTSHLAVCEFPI

Kd: 1.7 nM
koff: 0.00047 s⁻¹
kon: 280000 M⁻¹ s⁻¹
Substance: Recombinant human mannose-binding lectin (MBL) (from UniProt P11226 21-248) (natural protein)
